Measurements: patent US5739278A, “Compositions for protein tyrosine phosphatases” (University of Washington, priority 1995, dated 1998)
Where no end group is shown, it is not given here. [ ]: non-standard residue; d: D form. pY = N[C@@H](Cc1ccc(OP(=O)(O)O)cc1)C(=O)O

Legend:
Experiment in all cases: Phosphatase assay with ENDY(P)INASL as substrate
Format in all cases: biochemical
TC.PTP = target: T1, TC.PTP (Homo sapiens, UniProt P17706); details: TC20
T1 construct: made in house; host or cells: Sf9 cells (baculovirus)
T1 sequence (P17706 1-415): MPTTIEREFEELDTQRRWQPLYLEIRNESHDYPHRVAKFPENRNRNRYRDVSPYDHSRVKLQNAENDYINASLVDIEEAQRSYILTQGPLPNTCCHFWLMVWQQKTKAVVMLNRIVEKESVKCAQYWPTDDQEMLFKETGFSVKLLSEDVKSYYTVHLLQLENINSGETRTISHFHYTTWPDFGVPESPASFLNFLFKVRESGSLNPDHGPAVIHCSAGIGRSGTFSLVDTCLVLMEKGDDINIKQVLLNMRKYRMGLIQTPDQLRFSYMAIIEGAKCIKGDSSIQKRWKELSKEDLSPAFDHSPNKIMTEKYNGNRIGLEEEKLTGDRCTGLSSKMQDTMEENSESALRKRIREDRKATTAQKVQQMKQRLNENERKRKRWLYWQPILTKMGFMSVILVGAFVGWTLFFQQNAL
Outline: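 Sf9-expressed TC.PTP, RPTPα; placental PTP1B (37 kDa form); splenic CD45. ENDY(P)INASL, buffer M6, 10 min, 30° C. Stop: Norit A charcoal in 0.9N HCl/0.1M pyrophosphate/2 mM NaH2PO4; spin, count supernate radioactivity.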

CD45 = target: T2, CD45 (Homo sapiens, UniProt P08575)
T2 construct: CD45 were purified from placenta and spleen, respectively; from tissue; host or cells: spleen
T2 sequence (P08575 26-1306): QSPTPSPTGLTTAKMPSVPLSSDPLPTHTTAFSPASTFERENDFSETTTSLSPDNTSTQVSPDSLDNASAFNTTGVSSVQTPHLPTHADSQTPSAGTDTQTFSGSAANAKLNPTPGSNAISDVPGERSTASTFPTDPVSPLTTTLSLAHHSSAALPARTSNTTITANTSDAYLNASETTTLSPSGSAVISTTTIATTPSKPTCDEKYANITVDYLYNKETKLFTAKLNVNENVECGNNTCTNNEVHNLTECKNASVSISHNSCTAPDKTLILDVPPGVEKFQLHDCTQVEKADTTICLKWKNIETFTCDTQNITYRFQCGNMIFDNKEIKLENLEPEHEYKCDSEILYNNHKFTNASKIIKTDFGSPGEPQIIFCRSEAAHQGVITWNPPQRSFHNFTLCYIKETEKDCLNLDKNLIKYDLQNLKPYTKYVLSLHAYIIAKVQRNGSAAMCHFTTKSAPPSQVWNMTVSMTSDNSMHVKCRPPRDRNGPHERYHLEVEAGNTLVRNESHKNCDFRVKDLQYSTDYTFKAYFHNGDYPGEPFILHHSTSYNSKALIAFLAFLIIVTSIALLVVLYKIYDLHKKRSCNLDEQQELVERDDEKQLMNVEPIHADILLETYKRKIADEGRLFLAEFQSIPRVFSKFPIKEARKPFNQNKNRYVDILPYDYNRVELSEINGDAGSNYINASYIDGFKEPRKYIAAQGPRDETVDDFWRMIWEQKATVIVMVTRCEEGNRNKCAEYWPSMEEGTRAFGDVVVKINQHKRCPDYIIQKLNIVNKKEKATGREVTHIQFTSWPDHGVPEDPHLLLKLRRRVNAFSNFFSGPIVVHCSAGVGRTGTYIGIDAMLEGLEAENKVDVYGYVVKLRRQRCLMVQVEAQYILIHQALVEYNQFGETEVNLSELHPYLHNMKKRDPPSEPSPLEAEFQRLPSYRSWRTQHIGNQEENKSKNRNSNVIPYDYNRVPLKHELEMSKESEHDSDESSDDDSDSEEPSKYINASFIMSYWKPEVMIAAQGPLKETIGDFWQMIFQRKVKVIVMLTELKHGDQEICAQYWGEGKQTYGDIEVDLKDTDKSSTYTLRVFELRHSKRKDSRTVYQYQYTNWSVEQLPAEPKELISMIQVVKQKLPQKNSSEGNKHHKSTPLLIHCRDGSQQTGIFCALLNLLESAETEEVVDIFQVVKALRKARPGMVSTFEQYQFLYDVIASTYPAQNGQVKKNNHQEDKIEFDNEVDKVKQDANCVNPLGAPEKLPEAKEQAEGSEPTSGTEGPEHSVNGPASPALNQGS
Outline: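 Read-out is radioactivity left in the supernatant after charcoal removal of unreacted ENDY(P)INASL. Reactions ran in buffer M6 for 10 min at 30° C with purified phosphatase and effectors.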

TCΔC11.PTP = target: T3, TCΔC11.PTP (Homo sapiens, UniProt P17706)
T3 construct: both the wild type and truncated forms of the T-cell phosphatase; made in house; host or cells: Sf9 cells (baculovirus)
T3 sequence (P17706 1-317 limits assumed): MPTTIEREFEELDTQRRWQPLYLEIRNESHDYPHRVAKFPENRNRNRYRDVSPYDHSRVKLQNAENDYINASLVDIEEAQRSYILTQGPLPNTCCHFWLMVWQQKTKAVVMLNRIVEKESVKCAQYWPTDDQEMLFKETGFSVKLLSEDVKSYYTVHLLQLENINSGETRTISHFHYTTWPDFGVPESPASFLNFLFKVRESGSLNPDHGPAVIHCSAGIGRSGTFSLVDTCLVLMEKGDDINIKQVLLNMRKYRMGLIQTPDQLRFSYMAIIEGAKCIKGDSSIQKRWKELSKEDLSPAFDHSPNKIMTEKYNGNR
Outline: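 Purified human PTPs were tested on radiolabelled ENDY(P)INASL in buffer M6, 10 min, 30° C. Supernatant radioactivity after charcoal precipitation gave activity.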

[1] = non-linear regression of substrate saturation curves, mean of two experiments
[2] = one unit = release of 1 nmol phosphate per minute

“ENDY(P)INASL: ENDYINASL phosphorylated on its tyrosine residue (32P), used as PTP substrate (END[pY]INASL; also: phosphate 32P-labelled)” was tested, and the Km (TC.PTP; [1]) was 1130 ± 140 nM, the Vmax (TC.PTP; [2]) was 14221 +/- 7104 U/mg and the Km (CD45; [1]) was 13.8 ± 0.28 µM. The Vmax (CD45; [2]) was 1622 +/- 23 U/mg, the Km (TCΔC11.PTP; [1]) was 1000 ± 400 nM and the Vmax (TCΔC11.PTP; [2]) was 13374 +/- 970 U/mg.
